{"source": "patent US12454527B2", "about": "“Conjugate monomethyl auristatin E to obtain a composition for treatment of prostate cancer” (priority 2019, dated 2025)", "test": "Acute toxicity study, single intravenous administration, rats", "assay_type": "in vivo", "details": "for Necropsy (per animal): day 14; for Necropsy (per animal) / Necropsy / Signs of intoxication / Body weight dynamics in % of initial body weight, Day 5 (individual animals) / Body weight dynamics in % of initial body weight, Day 10 (individual animals) / Body weight dynamics in % of initial body weight, Day 14 (individual animals): listed as test drug; for Body weight dynamics in % of initial body weight, Day 5, M ± SD / Body weight dynamics in % of initial body weight, Day 5 (individual animals) / Body weight dynamics in % of initial body weight, Day 10, M ± SD / Body weight dynamics in % of initial body weight, Day 10 (individual animals) / Body weight dynamics in % of initial body weight, Day 14, M ± SD / Body weight dynamics in % of initial body weight, Day 14 (individual animals): single administration; for Body weight dynamics in % of initial body weight, Day 5, M ± SD: Day 5, group mean; for Body weight dynamics in % of initial body weight, Day 10, M ± SD: Day 10, group mean; for Body weight dynamics in % of initial body weight, Day 14, M ± SD: Day 14, group mean", "description": "Acute toxicity study of Conjugate (I) product on mice and rats.\n• 1. Conjugate (I). • 2. Solubilizer Pluronic F127—in the amount, five-fold greater than the conjugate amount by weight. • 3. Diluent Haemodes infusion solution. • 4. Dimethyl sulfoxide—in the amount of 5% of the prepared volume.\nThe experiment took white outbred male mice aged about 2 months with body weight of 19-21,g, and also white outbred mature male rats aged about 2 months with body weight 190-210 g.\nAcute toxicity study was performed within the intravenous administration. Before the start of the experiment to determine an acute toxicity, the animals were deprived of food and water (mice were deprived for 2 hours, rats—for 10-12 hours), and then weighed. Then each animal received the intravenous drug injection according to the study design, in a volume not exceeding the acceptable single injection volume: 0.5 mL for mice, 2 mL for rats, and fractionally if necessary. The control group of animals received Pluronic solution in Haemodes in the proportion used fort dose preparation of 78 mg/kg for mice and 38 mg/kg for rats. The duration of observation for laboratory animals was 14 days. During this period, visible signs of intoxication were assessed (see Table 9).", "key": {"[1]": {"details": "3 mg/kg, group 11, males, 3 mg/kg"}, "[2]": {"details": "4 mg/kg, group 12, males, 4 mg/kg"}}, "note": "Values joined by “and” are separate entries in the source; they are usually repeats but may differ in a detail not shown here. Equal values may be shown once. “Also recorded” adds a separate entry of the source. Starred links: 1 amine or outer side, 2 acyl side, 3 side chain; linkers in the order of their positions; H or OH if unused. Non-standard residues stand in square brackets, D forms with d. Residues, ends and D or L forms follow the SMILES beside them. ξ: configuration not given here. *: point of attachment. GluureaLys(ε-3-ClBenzyl) = O=C(O)CC[C@H](NC(=O)N[C@@H](CCCCN(Cc1cccc(Cl)c1)*)C(=O)O)C(=O)O; Dolaproine = CO[C@@H]([C@@H]1CCCN1)[C@@H](C)C(=O)O; Dil = CC[C@H](C)[C@H](NC)[C@@H](CC(=O)O)OC; X1 = O=C(CCCc1cn(CCCN[*:1])nn1)[*:2]; PABC = O=C(OCc1ccc(N[*:1])cc1)[*:2]; X2 = C[C@@H](N*)[C@@H](O)c1ccccc1; Cit = NC(=O)NCCC[C@H](N)C(=O)O; Suc = O=C(CCC(=O)[*:2])[*:1]; NMeV = CN[C@H](C(=O)O)C(C)C; ξV = CC(C)C(N)C(=O)O; Ahx = NCCCCCC(=O)O", "data": [{"smiles": "CC[C@H](C)[C@@H]([C@@H](CC(=O)N1CCC[C@H]1[C@H](OC)[C@@H](C)C(=O)N[C@H](C)[C@@H](O)c1ccccc1)OC)N(C)C(=O)[C@@H](NC(=O)[C@H](C(C)C)N(C)C(=O)OCc1ccc(NC(=O)[C@H](CCCNC(N)=O)NC(=O)C(NC(=O)CCCc2cn(CCCNC(=O)[C@H](Cc3ccc(O)cc3)NC(=O)[C@H](Cc3ccccc3)NC(=O)CCC(=O)NCCCCCC(=O)N(CCCC[C@H](NC(=O)N[C@@H](CCC(=O)O)C(=O)O)C(=O)O)Cc3cccc(Cl)c3)nn2)C(C)C)cc1)C(C)C", "note": "(some centres unmarked) [Conjugate (I)] ({GluureaLys(ε-3-ClBenzyl)-Ahx-Suc}-FY[X1][ξV][Cit][PABC][NMeV]V[Dil][Dolaproine]-X2)", "values": [{"measurement": "Fatality", "setting": "male rats, i.v. 5.1 mg/kg", "result": 4}, {"measurement": "Fatality", "setting": "male rats, i.v. 5.4 mg/kg", "result": 10}, {"measurement": "MTD at 14 days", "setting": "male, white outbred, rat, in vivo, iv, rats, single i.v., read-out: Maximum tolerated dose", "result": 4, "unit": "mg/kg"}, {"measurement": "Necropsy (per animal)", "setting": "rats, 1 mg/kg i.v., 1 mg/kg", "result": "1- NORMAL and 2- NORMAL and 3- light kidneys and 4- NORMAL and 5- NORMAL and 6- light kidneys, blurred pattern lines and 7- adrenals glands had hemorrhages, kidneys are and 8- light kidneys and 9- large spleen, granular kidneys and 10- kidneys with hemorrhages"}, {"measurement": "Necropsy (per animal)", "setting": "rats, 2 mg/kg i.v., 2 mg/kg", "result": "1- very light kidneys, unclear pattern, large spleen and 2- light-brown kidneys, dark adrenal glands with and 3- light-brown kidneys with hemorrhages, kidney cut and 4- light-brown kidneys with hemorrhages, kidney cut and 5- kidneys are lighter than a standard and 6- kidneys are almost standard, dark and increased and 7- spotted liver, light kidneys, their structure is visible and 8- liver is lighter than a standard, light kidneys and 9- dark maroon pancreas, increased and bloody adrenal and 10- dark maroon pancreas, kidneys with hemorrhages,"}, {"measurement": "Necropsy (per animal)", "setting": "rats, 3 mg/kg i.v., 3 mg/kg", "result": "1- light kidneys with hemorrhages and 2- light kidneys with hemorrhages, blurred pattern and 3- light kidneys with hemorrhages and 5- standard kidneys and 6- kidneys with hemorrhages, clear cut pattern and 7- light, spotted, unevenly stained kidneys and 8- light kidneys and 9- light kidneys, increased adrenal glands, kidneys with and 10- kidneys with hemorrhages, dark and increased"}, {"measurement": "Necropsy (per animal)", "setting": "rats, 4 mg/kg i.v., 4 mg/kg", "result": "1- kidneys with hemorrhages, unclear pattern and 2- spotted kidneys with hemorrhages, clear pattern and 3- increased right adrenal gland, standard kidneys and 4- slightly increased adrenal glands, with hemorrhages, and 5- spotted kidneys with hemorrhages, clear pattern and 6- standard kidney color, blurred cut pattern, unclear and 7- kidney surface hemorrhages, visible pattern and 8- light kidneys with hemorrhage foci, unclear pattern of and 9- slightly increased, hyperemic adrenal glands, kidney and 10- standard kidneys"}, {"measurement": "Necropsy", "setting": "rats, 4.5 mg/kg i.v., dead No. 4 and survivors day 14, 4.5 mg/kg", "result": "increased and hyperemic kidneys; spotted, dark kidneys;; also recorded: Only rat No. 5 had Sight kidneys; also recorded: Others had standard ones"}, {"measurement": "Necropsy", "setting": "rats, 5 mg/kg i.v., dead animals and survivors day 14, 5 mg/kg", "result": "2 - light brown kidneys with greenish shade, blurry cut and All rats had a large spleen"}, {"measurement": "Necropsy", "setting": "rats, 5.1 mg/kg i.v., survivors day 14, 5.1 mg/kg", "result": "One animal had increased adrenal glands, very light; also recorded: Others had standard ones"}, {"measurement": "Toxic effect (summary)", "setting": "rats, acute i.v.", "result": "diarrhea and the renal damage"}, {"measurement": "Signs of intoxication", "setting": "rats, single i.v. 1 mg/kg, 1 mg/kg", "result": "No diarrhea was observed on Day 5."}, {"measurement": "Signs of intoxication", "setting": "rats, single i.v. 3 mg/kg, 3 mg/kg", "result": "All animals experienced diarrhea on Day"}, {"measurement": "Signs of intoxication", "setting": "rats, single i.v. 4.5 mg/kg, 4.5 mg/kg", "result": "Decreased mot. activity - 5-40 minutes; also recorded: Shortness of breath - 1-60 minutes; also recorded: diarrhea, cachexia, porphyria, decreased"}, {"measurement": "Signs of intoxication", "setting": "rats, single i.v. 5 mg/kg, 5 mg/kg", "result": "All animals developed diarrhea/cachexia"}, {"measurement": "Signs of intoxication", "setting": "rats, single i.v. 5.1 mg/kg, 5.1 mg/kg", "result": "Decreased mot. activity - 5-40 minutes; also recorded: Shortness of breath - 1-60 minutes; also recorded: Days 1-2 - all animals had diarrhea,; also recorded: Death cases occurred in 2 days (2), 4"}, {"measurement": "Signs of intoxication", "setting": "rats, single i.v. 5.4 mg/kg, 5.4 mg/kg", "result": "Decreased mot. activity - 5-40 minutes; also recorded: Shortness of breath - 1-60 minutes; also recorded: Days 1-2 - all animals had diarrhea,; also recorded: No standard achieved; also recorded: Two animals had the hindlimb paresis"}, {"measurement": "Signs of intoxication", "setting": "rats, single i.v. 6 mg/kg, 6 mg/kg", "result": "on Day 2 - all animals showed diarrhea"}, {"measurement": "Signs of intoxication", "setting": "rats, single i.v. 8 mg/kg, 8 mg/kg", "result": "diarrhea, general starvation, adynamia"}, {"measurement": "Body weight dynamics in % of initial body weight, Day 5, M ± SD", "setting": "3 mg/kg, group 11, males", "result": "−0.2 ± 7.1", "unit": "%"}, {"measurement": "Body weight dynamics in % of initial body weight, Day 5 (individual animals)", "setting": "[1]", "result": "−1.5% and −11.2% and −5.1% and 10.8% and −9.4% and 5.5% and 1.4% and −2.4% and 2.0% and 7.6%"}, {"measurement": "Body weight dynamics in % of initial body weight, Day 10, M ± SD", "setting": "3 mg/kg, group 11, males", "result": "17.2 ± 6.1", "unit": "%"}, {"measurement": "Body weight dynamics in % of initial body weight, Day 10 (individual animals)", "setting": "[1]", "result": "17.3% and 5.9% and 16.4% and 25.1% and 11.4% and 20.1% and 19.7% and 17.1% and 13.2% and 26.1%"}, {"measurement": "Body weight dynamics in % of initial body weight, Day 14, M ± SD", "setting": "3 mg/kg, group 11, males", "result": "22.8 ± 6.0", "unit": "%"}, {"measurement": "Body weight dynamics in % of initial body weight, Day 14 (individual animals)", "setting": "[1]", "result": "20.8% and 10.1% and 20.0% and 29.1% and 16.8% and 27.1% and 26.4% and 23.8% and 24.9% and 29.4%"}, {"measurement": "Body weight dynamics in % of initial body weight, Day 5, M ± SD", "setting": "4 mg/kg, group 12, males", "result": "−7.7 ± 7.6", "unit": "%"}, {"measurement": "Body weight dynamics in % of initial body weight, Day 5 (individual animals)", "setting": "[2]", "result": "6.1% and −15.2% and −5.9% and 0.0% and −3.0% and −4.1% and −13.7% and −17.1% and −9.2% and −14.4%"}, {"measurement": "Body weight dynamics in % of initial body weight, Day 10, M ± SD", "setting": "4 mg/kg, group 12, males", "result": "11.0 ± 11.5", "unit": "%"}, {"measurement": "Body weight dynamics in % of initial body weight, Day 10 (individual animals)", "setting": "[2]", "result": "25.5% and 2.5% and 16.3% (2×) and 22.2% and 19.1% and 5.9% and −10.5% and 14.5% and −1.9%"}, {"measurement": "Body weight dynamics in % of initial body weight, Day 14, M ± SD", "setting": "4 mg/kg, group 12, males", "result": "20.1 ± 12.1", "unit": "%"}, {"measurement": "Body weight dynamics in % of initial body weight, Day 14 (individual animals)", "setting": "[2]", "result": "35.2% and 11.7% and 24.6% and 31.7% and 28.1% (2×) and 18.0% and 1.0% (2×) and 21.7%"}, {"measurement": "LD50 at 14 days", "setting": "white outbred, rat, in vivo, iv, male rats, single i.v., read-out: LD50 (median lethal dose)", "result": 4.9, "unit": "mg/kg"}]}]}
